Assay results from publication PMC12901311, “HEXIM1 inter-monomer autoinhibition governs 7SK RNA binding specificity and P-TEFb inactivation” (Nature Communications, 2024).

Legend:
Hexim1-deltaPYNT = Hexim1-deltaPYNT (human, UniProt O94992 1-201+206-359, internal_change); assay: ITC; ITC: 20 mM HEPES pH 7.5, 150 mM KCl, 1 mM TCEP, 295 K; NMR: 50 mM Na phosphate pH 6.2, 150 mM KCl, 0.02% NaN3, 5% D2O, 298 K; EMSA: binding buffer (20 mM HEPES); details: protein: recombinant; chain copies: 2; hairpin
Sequence of Hexim1-deltaPYNT (O94992 other isoform, or with tags, fused parts or gaps | mutant): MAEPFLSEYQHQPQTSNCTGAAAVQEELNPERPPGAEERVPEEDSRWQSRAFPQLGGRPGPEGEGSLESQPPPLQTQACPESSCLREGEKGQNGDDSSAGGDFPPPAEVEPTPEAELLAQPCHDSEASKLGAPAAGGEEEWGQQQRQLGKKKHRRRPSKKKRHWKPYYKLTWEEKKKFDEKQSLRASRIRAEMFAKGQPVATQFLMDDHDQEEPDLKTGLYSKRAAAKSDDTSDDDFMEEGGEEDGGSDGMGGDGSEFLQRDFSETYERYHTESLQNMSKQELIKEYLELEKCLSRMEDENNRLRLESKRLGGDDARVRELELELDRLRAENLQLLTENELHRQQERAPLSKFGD

[1] = target: Hexim1 BR-L-AR(S183C-MTSL) (human, UniProt O94992 142-253, S183C); assay: NMR (PRE); 1:1.2 protein:RNA; intensity recovery outside BR; ITC: 20 mM HEPES pH 7.5, 150 mM KCl, 1 mM TCEP, 295 K; NMR: 50 mM Na phosphate pH 6.2, 150 mM KCl, 0.02% NaN3, 5% D2O, 298 K; EMSA: binding buffer (20 mM HEPES); details: protein: recombinant; tags: MBP-His6 removed by TEV; non-native N-terminal G; MTSL spin label at C183; hairpin with U40U41 and U63 bulges
Sequence of Hexim1 BR-L-AR(S183C-MTSL) (O94992 142-253 S183C): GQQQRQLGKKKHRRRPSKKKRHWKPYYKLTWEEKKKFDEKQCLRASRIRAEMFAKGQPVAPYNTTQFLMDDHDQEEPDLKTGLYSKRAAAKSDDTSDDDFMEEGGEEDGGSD

Hexim1 NBLA-S158EE = Hexim1 NBLA-S158EE (human, UniProt O94992 1-157+=EE+159-253, internal_change); assay: ITC; N=0.74; ITC: 20 mM HEPES pH 7.5, 150 mM KCl, 1 mM TCEP, 295 K; NMR: 50 mM Na phosphate pH 6.2, 150 mM KCl, 0.02% NaN3, 5% D2O, 298 K; EMSA: binding buffer (20 mM HEPES); details: protein: recombinant; hairpin with U40U41 and U63 bulges
Sequence of Hexim1 NBLA-S158EE (O94992 other isoform, or with tags, fused parts or gaps): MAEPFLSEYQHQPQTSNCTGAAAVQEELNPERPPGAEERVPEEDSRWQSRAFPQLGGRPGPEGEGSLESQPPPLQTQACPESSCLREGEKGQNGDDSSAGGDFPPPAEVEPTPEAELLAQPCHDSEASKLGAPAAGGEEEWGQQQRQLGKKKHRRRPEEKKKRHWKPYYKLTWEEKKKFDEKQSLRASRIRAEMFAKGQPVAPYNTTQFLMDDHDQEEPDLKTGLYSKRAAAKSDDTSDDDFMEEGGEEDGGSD

| Binder | binding signal (Hexim1-deltaPYNT) | binding result [1] | Kd (Hexim1 NBLA-S158EE) [nM] |
| --- | --- | --- | --- |
| GGAUGUGAGGGCGAUCUGGCUUCGGCCUUCCUCCCUCACCGCUCCA (structured_RNA) [7SK SL1-p] | ~5 fold tighter than wild-type Hexim1 | – | – |
| GGCCAUUGAUCGCCUUCGGGCUGAUCUGGCC (structured_RNA) [7SK SL1-dI] | – | binds | 727 ± 63 |
